B1: Cell division inhibitor SulA (Escherichia coli (strain K12)), P0AFZ5 (parent)
chain: MYTSGYAHRSSSFSSAASKIARVSTENTTAGLISEVVYREDQPMMTQLLLLPLLQQLGQQSRWQLWLTPQQKLSREWVQASGLPLTKVMQISQLSPCHTVESMVRALRTGNYSVVIGWLADDLTEEEHAELVDAANEGNAMGFIMRPVSASSHATRQLSGLKIHSNLYH

Variants of: B1
Settings: with hslu_ecoli hslU

| effect of a mutation on the interaction | Variant |
| --- | --- |
| disrupting interaction | L57F |
| increasing interaction | M89I |
